Test results reported in PMC4542545.

Target: taxol stabilized microtubules assembled from MAP-free tubulin from bovine brain (bovine) (UniProt Q6B856)
Assay: co-sedimentation; 1.5 μM GFP-tagged TPPP/p25 with increasing concentrations of taxol stabilized MTs, 15 min at 37 °C, centrifugation; GFP fluorescence of pellets and supernatants; apparent Kd (likely a composite of MT binding and TPPP/p25 dimerization or oligomerization)

Substance | Kd [nM]
GFP-tagged TPPP/p25 ΔC(158) (from UniProt O94811 1-157) (domain or fragment) | 1750
GFP-tagged full-length TPPP/p25 (from UniProt O94811 1-219) (natural protein) | 1440
GFP-tagged TPPP/p25 ΔN(49) (from UniProt O94811 50-219) (domain or fragment) | 860
